According to the DeepSol protein solubility set:

test: soluble on expression in E. coli; label from the status in PepcDB or PDB records

| Sequence | soluble on expression in E. coli |
| --- | --- |
| MAHHHHHHSLPIKIPDNLPAAKTLNEENIFFMDEDRAYHQDIRPLNIVIVNLMPTKIVTETQILRLIGNSPLQVNPTFIHTQTHKSQNTSKEHLIKFYETFEEIKNNKFDGMIVTGAPVETLSFENVDYWEELCRIFDWSVTNVTSTIHICWGAQAGLYHHYGIPKYELHEKLFGVFKHNLTERNIKLTRGFDDEFYAPHSRHTYVKREDIKKNPSLKILAESDEAGAYIVASENGKNIFVMGHAEYDGDTLNLEYIRDKNQGMNIKIPKNYFKDNDPEKGPMVTWRGHANLLFSNWLNYYVYQETPFELEG | soluble |
| MAHHHHHHVDDDDKMVSTTPAAGVLDTSVFIATESGRQLDEALIPDRVATTVVTLAELRVGVLAAATTDIRAQRLATLESVADMETLPVDDDAARMWARLRIHLAESGRRVRINDLWIAAVAASRALPVITQDDDFAALDGAASVEIIRV | soluble |
| MAHLVITIGCEYGAKGNQIGKKVAKDLGIKFYDRDTVDEIIKEVGIPKDIMEKVEEGITIAGKGAEGDVRGSFSKYADLTERAIHVQKTIIRKLSDRESCVIIGRSADYILKEHKPILRIFIYSPDEVRIENVMKSHNLSEDDAKLFITEKDKRYHKRHMALTGSNRGDRHNRDMLIDSSLLGVDGTAELIESLARKVVENESKTEAGGDK | not soluble |
| MAHSEEQAAVPCAFIRQNSGNSISLDFEPDTEYQFVEQLEERYKCAFCHSVLHNPHQTGCGHRFCQQCIRSLRELNSVPICPVDKEVIKPQEVFKDNCCKREVLNLHVYCKNAPGCNARIILGRFQDHLQHCSFQAVPCPNESCREAMLRKDVKEHLSAYCRFREEKCLYCKRDIVVTNLQDHEENSCPAYPVSCPNRCVQTIPRARVNEHLTVCPEAEQDCPFKHYGCTVKGKRGNLLEHERAALQDHMLLVLEKNYQLEQRISDLYQSLEQKESKIQQLAETVKKFEKELKQFTQMFGRNGTFLSNVQALTSHTDKSAWLEAQVRQLLQIVNQQPSRLDLRSLVDAVDSVKQRITQLEASDQRLVLLEGETSKHDAHINIHKAQLNKNEERFKQLEGACYSGKLIWKVTDYRVKKREAVEGHTVSVFSQPFYTSRCGYRLCARAYLNGDGSGKGTHLSLYFVVMRGEFDSLLQWPFRQRVTLMLLDQSGKKNHIVETFKADPNSSSFKRPDGEMNIASGCPRFVSHSTLENSKNTYIKDDTLFLKVAVDLTDLEDL | soluble |
| MAIFRDYSINPTEHDRTIGDRRRHRELVEKAIKDNLADIVSEESIIGESKSKKIKIPIRGLKEYKFLYGNNSSSVGSGTGNEKKGDIIGKEQMGNGSKGKGKGAGNSEGEDIYETEVTIEEVFSYLLEDLNLPNLDKKKYSEIVTDSSKKKAGYQKYGIRPRLAKKRTVIEKIKREQSRKRAIKELGKDDKVERLPFSEEDLRYHRIKEKPKKECNAAIMCVMDCSGSMDSTKKYLARSFFFILSKFIRMKYVNVEIAFISHSTVGREVTETEFFHKVESGGTYISSGLNTAMDIIKERFNPATWNIYGFYVSDGDNFTEDDERAIKSMRKFCEIANMIGYAEILPYSYSGTMKYKFDNYVKDKNFISSTIRNKEDLWPVLKKMLIKELKELEHHHHHH | soluble |
| MAIGKKVSKKTPLLLAADSHKNAAKMPCFLLQAHRIANTVIAGWHGQRKRGNGENFWQFRPYVEGESITRIDWRRSARDGHTYLREHEWEKTQTVWIWPDQSASMHYCSCFSQTSKDNYAIILALTLATLLARSGENIAIPTLMPPTMAPNVVERMALALVNRHTENPFPDFSTITRFSHVIIMSDFLDSPEKIIQNLTVLSAKQITVHLIEVADPAEEHFPYAGHTEFFDPETKEKRILGKAENSREHYCKLYQARRQELTNFCTRQGWTYHVSKTDRPLTEVILRLANKIGISPSHNRRSL | not soluble |
| MAIKNEIKNCLIMSVNPSYPLPLLCQYIPRYHPQMPTCPLFESKSIITPVFYFNCKRMDRSIDRRLCGHCHQSIGSEALVAMNRLWHPDHFTCSSCKRPIKQTFQAADNHAYCVQCFAQKYNPKCAGCMETLVDTCLLALDRHWHPRCFTCSSCNRPLPNGEFYLVDDKPYDLDCHWAKRLEKREHMERGER | not soluble |
| MAISRELVDPNSSPREIEVSEPREVGITELVLRDAHQSLMATRMAMEDMVGACADIDAAGYWSVECWGGTTYDSCIRFLNEDPWERLRTFRKLMPNSRLQMLLRGQNLLGYRHYNDEVVDRFVDKSAENGMDVFRVFDAMNDPRNMAHAMAAVKKAGKHAQGTICYTISPVHTVEGYVKLAGQLLDMGADSIALKDMAALLKPQPAYDIIKAIKDTYGQKTQINLHCHSTTGVTEVSLMKAIEAGVDVVDTAISSMSLGPGHNPTESVAEMLEGTGYTTNLDYDRLHKIRDHFKAIRPKYKKFESKTLVDTSIFKSQIPGGMLSNMESQLRAQGAEDKMDEVMAEVPRVRKAAGFPPLVTPSSQIVGTQAVFNVMMGEYKRMTGEFADIMLGYYGASPADRDPKVVKLAEEQSGKKPITQRPADLLPPEWEKQSKEAATLKGFNGTDEDVLTYALFPQVAPVFFEHRAEGPHSVALTDAQLKAEAEGDEKSLAVAGPVTYNVNVGGTVREVTVQQATRASQPELAPEDPEDLEHHHHHH | soluble |
| MAITAKNAQLYGLDLELGLETGLAADVDNDSMSGLVLVELLSPYHQLETRFKLESQTALAFQAMADSAAKDGIKLAICSAYRPFDRQLAIWNAKASGKRVVLDINEQPVDITPLSESELVDLILLWSALPGASRHHWGTDIDVFDAEKIEVKSLRLVEAEYRDGGPCAQLHQWLVANAKDFGFYFPFQRGQSAVSAEPWHISYFPVSQILLPQFEVQALTQIIAHSDMLLKDAVLARLPELVAEYVHRIAQP | soluble |
| MAITVSIELNRDLEIPASYDEVFDLLADVPKSASHFPKVDKLVDLGNNAYRWEMEKVGVDKHAIQSVYACTYHADKEAGKITWSPIKGEGNGVVSGSWTLSAKGDNATAVKFQTSAELTVPLPSLLKLAISPVIKHEFNSLVDTYMANLKKAFLEHHHHHH | soluble |
| MAKEINLTGEEVVALAAKYMNETDAAFVKKALDYATAAHFYQVRKSGEPYIVHPIQVAGILADLHLDAVTVACGFLHDVVEDTDITLDNIEFDFGKDVRDIVDGVTKLGKVEYKSHEEQLAENHRKMLMAMSKDIRVILVKLADRLHNMRTLKHLRKDKQERISRETMEIYAPLAHRLGISRIKWELEDLAFRYLNETEFYKISHMMNEKRREREALVDDIVTKIKSYTTEQGLFGDVYGRPKHIYSIYRKMRDKKKRFDQIFDLIAIRCVMETQSDVYAMVGYIHELWRPMPGRFKDYIAAPKANGYQSIHTTVYGPKGPIEIQIRTKEMHQVAEYGVAAHWAYKKGVRGKVNQAEQKVGMNWIKELVELQDASNGDAVDFVDSLEHHHHHH | soluble |
| MAKFNVENEHVEVEIEKLYKFSPELVYEAWTKKDLLKQWFMTSARTNKEIEADVKEGGKYRIVDQQRNGKVNVIEGIYESLVMDEYVKMTIGMPGLSETQDVIEVEFFERETGGTQMLFYYRSLVEKERRFTNLEYKQKKKEYHDAMVHGFELMFDKMYHVIETSTQQ | soluble |
| MAKKRSKLEIIQAILEACKSGSPKTRIMYGANLSYALTGRYIKMLMDLEIIRQEGKQYMLTKKGEELLEDIRKFNEMRKNMDQLKEKINSVLSIRQ | soluble |
| MAKKTSSKGKLPPGPRPLPLLGNLLQMDRRGLLKSFLRFREKYGDVFTVHLGPRPVVMLCGVEAIREALVDKAEAFSGRGKIAMVDPFFRGYGVIFANGNRWKVLRRFSVTTMRDFGMGKRSVEERIQEEAQCLIEELRKSKGALMDPTFLFQSITANIICSIVFGKRFHYQDQEFLKMLNLFYQTFSLISSVFGQLFELFSGFLKHFPGAHRQVYKNLQEINAYIGHSVEKHRETLDPSAPRDLIDTYLLHMEKEKSNAHSEFSHQNLNLNTLSLFFAGTETTSTTLRYGFLLMLKYPHVAERVYREIEQVIGPHRPPELHDRAKMPYTEAVIYEIQRFSDLLPMGVPHIVTQHTSFRGYIIPKDTEVFLILSTALHDPHYFEKPDAFNPDHFLDANGALKKTEAFIPFSLGKRICLGEGIARAELFLFFTTILQNFSMASPVAPEDIDLTPQECGVGKIPPTYQIRFLPRHHHH | soluble |
| MAKRGRKRKVSKDEENTTPEPEMKKKADEKVVELDEKDWMPSAALEFFENENFKEIVENLSHLDNSVTLVGPFRKLRGESDADGTDLIMLDREMTDLPEMQTFMKCSHGRYAFWRDKPNDKKPVIVFMDLKTIPDLSVVGNEIRHAILDFCTRCSKCIDCSAKSKAANSKIQSFFTPSKISSEVKEVLKHREKTTVRGISGPGMLIDVVPTGNSGKKNKKNERTGYRDLSKNAYCINIEHLVRSLRLCQTKEQEEKVLDFVYGLMNEINICNDEGDFGNGLELGHILFLANMKAVADPMMITLHIAYKNLHRPDFAKILDLTLSLRDQQEEAT | soluble |
| MAKSFNQAASELTDIFPNISLTGFDGVNYPVTVNCPMHGNVRYSTFNALIKSKYGCPECAKMSKTQTPPNVGKPLLILDTTTNETLTFPSVTAAGAALGVHFQQINHRLKGRTSPDNLISNRYKVLGYDR | not soluble |
| MAKSPVEVNLIPIEATPENFAEYGQVIEASRDGAGFGPHDAQLDLSRGTPRLYILRLKETPLGFFKITHHAKVTQCLGSIGGDVWYMGVAKPSLIEDDDDDGRSVDTVKSKSGHLYIPPEVEEIRVFRFSGPKFVKLHRGTWHAGPLFSGSSFMDFYNLELSNTNVSEEWF | soluble |
| MAKSSSLNVRVVEGRALPAKDVSGSSDPYCLVKVDDEVVARTATVWRSLGPFWGEEYTVHLPLDFHQLAFYVLDEDTVGHDDIIGKISLSREAITADPRGIDSWINLSRVDPDAEVQGEICLSVQMLEDGQGRCLRCHVLQARDLAPRDISGTSDPFARVFWGSQSLETSTIKKTRFPHWDEVLELREMPGAPSPLRVELWDWDMVGKNDFLGMVEFSPKTLQQKPPKGWFRLLPFPRAEEDSGGNLGALRVKVRLIEDRVLPSQCYQPLMELLMESVQGPAEEDTASPLALLEELTLGDCRQDLATKLVKLFLGRGLAGHFLDYLTRREVARTMDPNTLFRSNSLASKSMEQFMKLVGMPYLHEVLKPVISRVFEEKKYMELDPCKMDLGRTRRISFKGALSEEQMRETSLGLLTGYLGPIVDAIVGSVGRCPPAMRLAFKQLHRRVEERFPQAEHQQDVKYLAISGFLFLRFFAPAILTPKLFDLRDQHADPQTSRSLLLLAKAVQSIGNLGQQLGQGKELWMAPLHPFLLQCVSRVRDFLDRLVDVDGDEEAGVPARALFPPSAIVREGYLLKRKEEPAGLATRFAFKKRYVWLSGETLSFSKSPEWQMCHSIPVSHIRAVERVDEGAFQLPHVMQVVTQDGTGALHTTYLQCKNVNELNQWLSALRKASAPNPNKLAACHPGAFRSARWTCCLQAERSAAGCSRTHSAVTLGDWSDPLDPDAEAQTVYRQLLLGRDQLRLKLLEDSNMDTTLEADTGACPEVLARQRAATARLLEVLADLDRAHEEFQQQERGKAALGPLGP | soluble |
| MAKTYGLIGLYSRIVNKIEDSKKYLSLAIEMNIQSGNHKSLFVNELRLAHTYQWETNYHKSNKLFKKLKEQSESDTEHSNYLDSVYQHYGKNLFDQSEYQLALKYVKKALRIRVEKGNKELIDSTEYAINICNEKIKQIKEMAGDPLEHHHHHH | not soluble |
| MAKVIFDENRCKGCKLCTTVCPKKIVVMNEDKLNQKGFHPAGVVDMDKCIGCAFCATICPDCVIEVYK | not soluble |
